The target of assay [1] is purified recombinant BoNT/A light chain (Clostridium botulinum, UniProt P0DPI1 2-448). The experiment in a line: ELISA on BoNT subunits / Western blot of reduced holotoxin. For orientation: In an ELISA, binding on a coated surface is turned into a signal by an enzyme label.
The target in the next assay is BoNT/A heavy chain (Clostridium botulinum, UniProt P0DPI1 449-1296). The assay is described as above.
Assay [2] addresses T1, Botulinum neurotoxin serotype A1 (BoNT/A) holotoxin (Clostridium botulinum, UniProt P0DPI1 2-1296). The assay is described as follows: binding competition assay.
Assay [3] concerns the target T1, Botulinum neurotoxin serotype A1 …. The experiment in a line: method not stated.
Assay [4] concerns the target Clostridium difficile toxin B (TcdB) holotoxin (Clostridium difficile) (UniProt P18177). The assay is described as follows: cell-based or functional assay.
Assay [5] has as its target Clostridium difficile toxin A (TcdA) holotoxin (Clostridium difficile) (UniProt P16154). The experiment in a line: cell-based or functional assay.

Several values for one entry are separate records, joined by “and”; a condition that tells them apart may be missing. Equal entries are not always repeated.

Clostridium difficile toxin B (TcdB) holotoxin (Clostridium difficile), sequence (P18177 2-2366): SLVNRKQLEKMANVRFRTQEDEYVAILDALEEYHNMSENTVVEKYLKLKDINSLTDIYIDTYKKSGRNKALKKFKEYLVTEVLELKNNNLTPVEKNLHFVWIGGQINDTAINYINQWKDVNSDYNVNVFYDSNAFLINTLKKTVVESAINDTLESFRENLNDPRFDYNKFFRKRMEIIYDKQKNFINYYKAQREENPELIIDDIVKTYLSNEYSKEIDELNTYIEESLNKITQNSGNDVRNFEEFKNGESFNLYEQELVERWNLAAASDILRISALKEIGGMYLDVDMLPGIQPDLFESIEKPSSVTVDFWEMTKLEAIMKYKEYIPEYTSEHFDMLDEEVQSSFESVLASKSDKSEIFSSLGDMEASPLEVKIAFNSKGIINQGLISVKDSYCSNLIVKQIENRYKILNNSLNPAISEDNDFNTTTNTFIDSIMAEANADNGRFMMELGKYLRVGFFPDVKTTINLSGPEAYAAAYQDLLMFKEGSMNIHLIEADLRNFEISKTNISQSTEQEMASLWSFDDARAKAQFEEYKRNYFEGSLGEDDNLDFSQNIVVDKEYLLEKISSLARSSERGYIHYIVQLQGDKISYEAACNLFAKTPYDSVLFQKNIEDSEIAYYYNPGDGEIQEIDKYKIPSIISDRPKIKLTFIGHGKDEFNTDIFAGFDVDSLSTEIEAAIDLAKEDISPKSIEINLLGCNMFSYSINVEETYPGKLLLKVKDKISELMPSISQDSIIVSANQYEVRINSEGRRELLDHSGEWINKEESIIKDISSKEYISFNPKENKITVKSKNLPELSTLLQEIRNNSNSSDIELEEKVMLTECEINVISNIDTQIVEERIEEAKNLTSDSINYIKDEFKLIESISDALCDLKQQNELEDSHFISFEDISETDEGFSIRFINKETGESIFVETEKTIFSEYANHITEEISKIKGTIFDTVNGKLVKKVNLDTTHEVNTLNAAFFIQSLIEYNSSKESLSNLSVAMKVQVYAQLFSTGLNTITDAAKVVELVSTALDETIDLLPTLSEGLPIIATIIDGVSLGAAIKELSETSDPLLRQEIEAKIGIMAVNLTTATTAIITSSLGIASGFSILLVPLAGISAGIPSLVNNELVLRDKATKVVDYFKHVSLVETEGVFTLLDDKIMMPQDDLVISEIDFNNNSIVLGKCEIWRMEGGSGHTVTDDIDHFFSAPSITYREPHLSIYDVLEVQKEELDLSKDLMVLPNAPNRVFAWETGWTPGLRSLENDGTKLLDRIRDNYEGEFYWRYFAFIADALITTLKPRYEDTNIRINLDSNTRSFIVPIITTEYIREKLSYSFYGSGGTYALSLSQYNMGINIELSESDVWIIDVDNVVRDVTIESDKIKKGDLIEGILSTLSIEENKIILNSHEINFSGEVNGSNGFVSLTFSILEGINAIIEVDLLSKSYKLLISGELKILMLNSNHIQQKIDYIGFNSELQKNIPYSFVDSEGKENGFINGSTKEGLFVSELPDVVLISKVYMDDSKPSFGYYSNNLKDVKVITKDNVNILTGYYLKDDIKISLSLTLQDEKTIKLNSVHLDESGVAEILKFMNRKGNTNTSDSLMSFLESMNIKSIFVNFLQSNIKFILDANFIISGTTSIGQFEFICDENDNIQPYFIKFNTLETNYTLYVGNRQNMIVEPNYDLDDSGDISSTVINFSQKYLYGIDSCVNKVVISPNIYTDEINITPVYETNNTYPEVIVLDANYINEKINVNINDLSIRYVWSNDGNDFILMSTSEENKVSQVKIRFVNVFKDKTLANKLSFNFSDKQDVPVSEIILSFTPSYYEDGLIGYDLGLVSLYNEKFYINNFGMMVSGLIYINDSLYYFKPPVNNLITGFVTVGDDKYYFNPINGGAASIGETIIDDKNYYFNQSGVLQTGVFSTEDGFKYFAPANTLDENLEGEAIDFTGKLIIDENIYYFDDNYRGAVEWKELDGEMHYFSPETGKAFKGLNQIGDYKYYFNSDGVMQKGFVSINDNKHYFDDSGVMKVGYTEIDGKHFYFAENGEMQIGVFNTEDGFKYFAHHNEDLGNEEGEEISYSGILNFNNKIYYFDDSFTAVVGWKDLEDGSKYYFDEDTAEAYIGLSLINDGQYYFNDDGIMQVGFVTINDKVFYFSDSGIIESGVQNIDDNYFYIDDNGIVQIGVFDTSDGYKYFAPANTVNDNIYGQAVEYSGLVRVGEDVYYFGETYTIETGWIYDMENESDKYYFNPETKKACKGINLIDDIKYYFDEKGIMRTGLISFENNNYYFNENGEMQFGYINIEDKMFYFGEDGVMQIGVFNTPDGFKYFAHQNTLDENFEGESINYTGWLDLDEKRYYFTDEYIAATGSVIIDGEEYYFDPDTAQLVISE
Clostridium difficile toxin A (TcdA) holotoxin (Clostridium difficile), sequence (P16154 whole entry): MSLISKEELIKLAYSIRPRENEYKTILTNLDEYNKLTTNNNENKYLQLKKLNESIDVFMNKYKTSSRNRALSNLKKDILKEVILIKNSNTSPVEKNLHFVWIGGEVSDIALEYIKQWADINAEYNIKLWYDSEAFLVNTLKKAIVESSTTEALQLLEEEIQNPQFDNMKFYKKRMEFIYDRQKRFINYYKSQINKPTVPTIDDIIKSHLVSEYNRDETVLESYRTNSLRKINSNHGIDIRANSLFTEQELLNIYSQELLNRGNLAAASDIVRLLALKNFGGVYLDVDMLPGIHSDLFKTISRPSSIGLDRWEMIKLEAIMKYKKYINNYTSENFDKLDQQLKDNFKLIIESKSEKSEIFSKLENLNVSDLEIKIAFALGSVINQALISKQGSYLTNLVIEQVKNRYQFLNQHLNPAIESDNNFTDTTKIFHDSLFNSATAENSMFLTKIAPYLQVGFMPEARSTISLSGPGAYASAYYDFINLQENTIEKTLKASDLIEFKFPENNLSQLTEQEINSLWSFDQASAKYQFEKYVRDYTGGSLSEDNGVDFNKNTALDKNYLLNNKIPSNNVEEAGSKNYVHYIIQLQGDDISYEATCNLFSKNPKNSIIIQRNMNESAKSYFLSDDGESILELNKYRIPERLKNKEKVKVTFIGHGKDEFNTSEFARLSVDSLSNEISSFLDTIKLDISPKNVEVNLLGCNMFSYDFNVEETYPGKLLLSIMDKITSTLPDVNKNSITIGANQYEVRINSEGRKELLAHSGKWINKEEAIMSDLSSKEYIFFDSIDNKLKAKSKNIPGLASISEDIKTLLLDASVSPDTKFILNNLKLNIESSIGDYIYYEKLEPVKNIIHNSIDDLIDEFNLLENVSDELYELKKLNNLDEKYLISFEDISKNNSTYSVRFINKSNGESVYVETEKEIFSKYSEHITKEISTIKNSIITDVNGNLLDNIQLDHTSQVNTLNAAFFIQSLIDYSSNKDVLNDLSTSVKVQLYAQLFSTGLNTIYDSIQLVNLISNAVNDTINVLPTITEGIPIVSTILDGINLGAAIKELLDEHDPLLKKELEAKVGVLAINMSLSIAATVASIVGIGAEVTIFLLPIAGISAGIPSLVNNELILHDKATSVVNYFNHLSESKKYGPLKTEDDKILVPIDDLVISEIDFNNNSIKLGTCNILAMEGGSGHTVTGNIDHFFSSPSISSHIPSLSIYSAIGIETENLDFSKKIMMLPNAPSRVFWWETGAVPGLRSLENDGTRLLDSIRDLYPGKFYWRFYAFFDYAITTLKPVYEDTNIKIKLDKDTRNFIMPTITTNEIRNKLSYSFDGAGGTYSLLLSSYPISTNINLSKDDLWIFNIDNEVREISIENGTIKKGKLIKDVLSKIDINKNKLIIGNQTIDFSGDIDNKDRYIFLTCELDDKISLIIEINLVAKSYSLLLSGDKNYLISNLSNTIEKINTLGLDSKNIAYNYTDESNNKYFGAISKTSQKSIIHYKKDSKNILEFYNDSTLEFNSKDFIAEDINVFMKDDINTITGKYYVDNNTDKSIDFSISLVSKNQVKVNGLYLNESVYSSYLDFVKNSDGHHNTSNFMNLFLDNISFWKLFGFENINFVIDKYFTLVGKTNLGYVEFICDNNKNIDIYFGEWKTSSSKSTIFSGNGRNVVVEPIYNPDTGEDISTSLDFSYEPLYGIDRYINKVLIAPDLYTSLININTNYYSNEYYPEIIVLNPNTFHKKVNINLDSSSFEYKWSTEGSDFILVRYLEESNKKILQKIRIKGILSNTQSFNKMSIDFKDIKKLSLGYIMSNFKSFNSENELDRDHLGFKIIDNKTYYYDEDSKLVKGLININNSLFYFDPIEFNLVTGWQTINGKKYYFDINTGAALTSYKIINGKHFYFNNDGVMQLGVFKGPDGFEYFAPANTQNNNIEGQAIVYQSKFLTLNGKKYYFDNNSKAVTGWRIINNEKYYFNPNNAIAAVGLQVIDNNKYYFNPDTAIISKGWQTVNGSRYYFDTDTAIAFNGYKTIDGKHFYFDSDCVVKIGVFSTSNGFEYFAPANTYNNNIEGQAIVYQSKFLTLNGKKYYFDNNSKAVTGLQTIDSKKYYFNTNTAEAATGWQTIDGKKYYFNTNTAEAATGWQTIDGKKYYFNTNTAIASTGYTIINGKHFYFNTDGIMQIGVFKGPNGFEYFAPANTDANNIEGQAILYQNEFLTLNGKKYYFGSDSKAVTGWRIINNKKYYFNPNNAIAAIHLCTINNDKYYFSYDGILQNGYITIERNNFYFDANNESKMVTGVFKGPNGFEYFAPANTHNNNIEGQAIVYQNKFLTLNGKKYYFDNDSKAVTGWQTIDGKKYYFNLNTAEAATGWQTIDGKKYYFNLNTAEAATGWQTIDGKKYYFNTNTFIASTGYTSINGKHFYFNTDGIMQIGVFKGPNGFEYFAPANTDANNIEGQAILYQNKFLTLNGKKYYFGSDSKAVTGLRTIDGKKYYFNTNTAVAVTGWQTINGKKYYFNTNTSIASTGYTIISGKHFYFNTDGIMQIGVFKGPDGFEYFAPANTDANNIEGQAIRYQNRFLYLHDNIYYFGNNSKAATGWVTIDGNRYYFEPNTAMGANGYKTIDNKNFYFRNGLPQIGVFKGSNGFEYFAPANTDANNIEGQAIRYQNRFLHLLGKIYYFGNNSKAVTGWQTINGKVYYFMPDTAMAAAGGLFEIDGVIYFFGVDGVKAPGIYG

B1: ciA-G5 (VHH)
VHH: QVQLVESGGGLVQPGGSLRLSCQVSGFTFGDWVMSWFRQAPGKEREFVASITATSSLKYYADSVKGRFTISRDNVNNTLFLQMDRLKSEDTAVYYCRSPNYWGQGTQVTVSA
Regarding B1, the binding result (in assay [1]; with BoNT/A heavy chain) was “no binding” in each case.

B2: JDQ-E9 (VHH)
VHH: QVQLVESGGGLVRPGGSLRLSCVVSGFAYEMPMMGWYRQAPGNQRELVATIGTGGRMNYADSVKGRFTISRDNAKNTVYLQMNSLKPEDTAAYYCKIEFTNYWGQGTQVTVSS
For the molecule B2, the binding result in assay [2] is given as “binds”.

B3: JDQ-F9 (VHH)
VHH: QVQLVESGGGLVQDGGSLRLSCTTSGSIDSFNAIEWYRQAPGKQRELVASISSDGRRTNYADSVKGRFTISGDNAKNTVYLQMNSLKPEDTAVYYCHRPFTHYWGQGTQVTVSS
B3: the binding result in assay [2] is “binds”.

B4: scFv#7 (scFv)
scFv: SYELTQPPSMSVALGQTAKVTCQGDNLENFYVQWHQQKPGQAPVTVIFQDNKRPSGIPDRFSGSNSGNTATLTISGARTEDEADYYCQSGHSSIGGVFGSGTSLTVLGQPAAAGGGGSGGGGSGGGGSARQVQLQESGPSLVKPSQTLSLTCTVSGFSLTGNSVTWVRQAPGNVPEWLGGISRGGRTYYDTALKSRLSITRDTSKRQVSLSLSSVTTEDTAMYFCARSAYSTLYDYEYAADIYDWGPGLLVTVSSTSGAPVPYPDPLEPRAA
Take B4: in assay [3], the Kd – broadly, the equilibrium constant for the complex coming apart – was approximately 1 nM.

B5: ciA-A5 (VHH)
VHH: QVQLVESGGGLVQPGGSLRLSCAASAGNLDYYAIGWFRQAPGKEREGVSCISSSDGSTVYTDSVKGRFTISRDNTKNTVDLQMDNLKPEDTAVYYCATVVNYYCTAGGSIHASPYEIWGQGTQVTVSS
Turning to B5, the binding result (in assay [1]; with BoNT/A heavy chain) was “no binding” in each case.

B6: 5D/AA6 VHH heterodimer (bispecific antibody)
chain: QVQLVESGGGLVQPGGSLRLSCEASGFTLDYYGIGWFRQPPGKEREAVSYISASARTILYADSVKGRFTISRDNAKNAVYLQMNSLKREDTAVYYCARRRFSASSVNRWLADDYDVWGRGTQVAVSSEPKTPKPQGGGGSGGGGSGGGGSQLQLVETGGGLVQPGGSLRLSCAASGFTFSDYVMTWVRQAPGKGPEWIATINTDGSTMRDDSTKGRFTISRDNAKNTLYLQMTSLKPEDTALYYCARGRVISASAIRGAVRGPGTQVTVSSEPKTPKPQP
Turning to B6, the fold neutralization of TcdB against the 5D/AH3 heterodimer in assay [4] is 3 fold and 4 fold. Further, the fold neutralization of TcdA against the 5D/AH3 heterodimer (CT26 cell rounding) in assay [5] was 5 fold.

B7: JDQ-B2 (VHH)
VHH: QVQLVESGGGLVQPGGSLRLSCTVSGSIFDLPGMNWYRQAPGAQRELVADISSDGRRTNYADSVKGRFTMSRDNAKKTVYLQMDSLKPDDTAVYYCNVKFTHHWGQGIQVTVSS
Regarding B7, the binding result in assay [2] is given as “binds”.

B8: JDQ-C5 (VHH)
VHH: QVQLVESGGGLVQPGGSLRLSCTVSGSIFGLPGMSWYRQAPGAQRELVADISSDGGRTHYADSVKGRFTISRDNDKKTVYLQMDSLKPDDTAVYYCNVKFTHHWGQGIQVTVSS
B8: the binding result in assay [2] is “binds”.

The values are drawn from US20130058962A1 (published 2013).
